Assay results from article PMC7407374, “Addressing the Molecular Mechanism of Longitudinal Lamin Assembly Using Chimeric Fusions” (Cells, 2020).

B1: LA 17-70-Eb1 (domain or fragment, UniProt P02545 17-70, looked up)
chain: SSTPLSPTRITRLQEKEDLQELNDRLAVYIDRVRSLETENAGLRLRITESEEVVDFYFGKLRNIELICQENEGENDPVLQRIVDILYATDE
notes: human lamin A, residues 17-70: truncated head domain, coil1A and the first three residues of linker L1; also called N-terminal fragment; N-terminal construct; source: E. coli Rosetta 2 (DE3) pLysS, purified (Ni column, tag cleavage, second Ni column, SEC); not shown: His6, N-terminal, cleaved; SUMO, N-terminal, cleaved
B2: LA 22-70-Eb1 (domain or fragment, UniProt P02545 22-70, looked up)
chain: SPTRITRLQEKEDLQELNDRLAVYIDRVRSLETENAGLRLRITESEEVVDFYFGKLRNIELICQENEGENDPVLQRIVDILYATDE
notes: human lamin A, residues 22-70: truncated head domain, coil1A and the first three residues of linker L1; also called N-terminal fragment; N-terminal construct; source: E. coli Rosetta 2 (DE3) pLysS, purified (Ni column, tag cleavage, second Ni column, SEC); not shown: His6, N-terminal, cleaved; SUMO, N-terminal, cleaved

What was measured:
[1] = target: Gp7_(F40C)-LA 327-403 (bacteriophage φ29 | human) (UniProt P13848); experiment: SEC-MALS; inline MALS (Dawn Heleos) on Superdex 200 Increase 10/300 GL at 20 °C; individual proteins and 1:1 mixtures; 150 mM NaCl with 10 mM Hepes pH 7.5 or 10 mM TEA pH 7.0
[2] = target: the molecule itself; experiment: as above

Molecule | stoichiometry N [1] | stoichiometry N [2]
Gp7_(F40C)-LA 327-403 (from UniProt P13848 1-49; P02545 327-403) (domain or fragment) | 2 | –
B1 | – | 2
B2 | – | 2
